Three molecules from US20230048633A1 (SHATTUCK LABS, published 2023) can be followed below.

To fix the notation:
T1: m4-1BB expressed on CHO-K1 cells (CHO-K1/m4-1BB+ (C20)) (mouse, UniProt P20334 24-256)
T1 construct: whole, on cells; also called CHO-K1/4-1BB cells; 4-1BB expressed by the CHO-K1/4-1BB cells
T1 sequence (looked up): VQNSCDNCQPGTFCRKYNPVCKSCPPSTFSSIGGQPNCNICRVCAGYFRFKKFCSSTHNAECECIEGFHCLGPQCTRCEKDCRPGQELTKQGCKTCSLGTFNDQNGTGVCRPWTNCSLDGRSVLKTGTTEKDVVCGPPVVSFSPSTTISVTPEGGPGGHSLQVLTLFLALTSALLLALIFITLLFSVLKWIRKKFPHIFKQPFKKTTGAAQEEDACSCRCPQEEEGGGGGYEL

T2: recombinant mouse 4-1 BB Ligand protein (R&D Systems, Cat. No. 1246-4L) (mouse, UniProt P41274 104-309)
T2 construct: Bought reagent; also called commercially available recombinant mouse 4-1 BB Ligand protein
T2 sequence (looked up): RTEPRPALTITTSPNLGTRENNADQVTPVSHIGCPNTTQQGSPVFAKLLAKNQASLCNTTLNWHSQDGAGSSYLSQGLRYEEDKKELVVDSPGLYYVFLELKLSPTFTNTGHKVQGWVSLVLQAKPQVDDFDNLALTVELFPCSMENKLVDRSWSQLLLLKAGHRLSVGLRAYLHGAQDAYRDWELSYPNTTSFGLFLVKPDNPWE

B1: hTGFBR2-Fc-NKG2A chimeric protein (Fc fusion)
chain: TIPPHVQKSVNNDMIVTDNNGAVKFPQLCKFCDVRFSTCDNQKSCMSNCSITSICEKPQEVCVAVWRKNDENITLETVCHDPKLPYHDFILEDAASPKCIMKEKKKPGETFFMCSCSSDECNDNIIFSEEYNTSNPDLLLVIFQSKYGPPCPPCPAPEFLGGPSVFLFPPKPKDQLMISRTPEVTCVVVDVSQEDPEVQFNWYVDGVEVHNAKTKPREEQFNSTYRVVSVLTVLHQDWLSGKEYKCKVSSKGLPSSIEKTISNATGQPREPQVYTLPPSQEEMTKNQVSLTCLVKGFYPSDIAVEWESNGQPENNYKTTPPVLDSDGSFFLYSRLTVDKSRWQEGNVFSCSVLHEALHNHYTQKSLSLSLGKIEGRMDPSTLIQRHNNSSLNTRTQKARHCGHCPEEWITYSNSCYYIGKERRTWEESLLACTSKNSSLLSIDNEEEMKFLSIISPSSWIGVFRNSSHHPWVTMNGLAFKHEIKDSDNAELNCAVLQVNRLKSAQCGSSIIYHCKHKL
notes: also called human TGFBR2-Fc-NKG2A
B2: mTGFBR2-Fc-4-1BBL chimeric protein (Fc fusion, mouse, UniProt Q62312 24-166, looked up)
chain: IPPHVPKSVNSDVMASDNGGAVKLPQLCKFCDVRLSTCDNQKSCMSNCSITAICEKPHEVCVAVWRKNDKNITLETVCHDPKLTYHGFTLEDAASPKCVMKEKKRAGETFFMCACNMEECNDYIIFSEEYTTSSPDLLLVIIQVPRDCGCKPCICTVPEVSSVFIFPPKPKDVLTITLTPKVTCVVVDISKDDPEVQFSWFVDDVEVHTAQTQPREEQFNSTFRSVSELPIMHQDWLNGKEFKCRVNSAAFPAPIEKTISKTKGRPKAPQVYTIPPPKEQMAKDKVSLTCMITDFFPEDITVEWQWNGQPAENYKNTQPIMNTNGSYFVYSKLNVQKSNWEAGNTFTCSVLHEGLHNHHTEKSLSHSPGKRTEPRPALTITTSPNLGTRENNADQVTPVSHIGCPNTTQQGSPVFAKLLAKNQASLCNTTLNWHSQDGAGSSYLSQGLRYEEDKKELVVDSPGLYYVFLELKLSPTFTNTGHKVQGWVSLVLQAKPQVDDFDNLALTVELFPCSMENKLVDRSWSQLLLLKAGHRLSVGLRAYLHGAQDAYRDWELSYPNTTSFGLFLVKPDNPWE
notes: extracellular domain;domain: hinge-CH2-CH3 Fc domain; also called murine TGFBR2-Fc-4-1BBL; TGFBR2-Fc-CD137L
B3: recombinant 4-1BB-His protein (receptor, mouse, UniProt P20334 24-187, looked up)
chain: VQNSCDNCQPGTFCRKYNPVCKSCPPSTFSSIGGQPNCNICRVCAGYFRFKKFCSSTHNAECECIEGFHCLGPQCTRCEKDCRPGQELTKQGCKTCSLGTFNDQNGTGVCRPWTNCSLDGRSVLKTGTTEKDVVCGPPVVSFSPSTTISVTPEGGPGGHSLQVL
notes: also called m4-1BB-His; CD137; not shown: His tag

The target in test [1] is T3, anti-human IgG antibody.
T3 construct: also called anti-human Fc antibody
Description: ELISA: plate coated with Anti-Human IgG (H+L) Jax# 109-005-088, titrated protein captured, detected with HRP Goat anti-human FCgamma Jax# 109-035-008. The protocol:
To understand whether the human Fc linkers from the native chimeric proteins can be accessed by anti-human antibodies, ELISA-based assays were performed. For these assays, an anti-human IgG antibody was coated on plates and increasing amounts of the hCD86-Fc-NKG2A, hTGFBR2-Fc-NKG2A, and mCD80-Fc-NKG2a chimeric proteins, and a human IgG antibody were added to the plates for capture by the plate-bound anti-human antibody. The human IgG antibody and the hCD86-Fc-NKG2A chimeric protein were used as a positive control. The mCD80-Fc-NKG2a chimeric protein was included as a negative control as containing a non-human Fc domain. The protein bound to the anti-human IgG antibody was detected using an anti-human Fcgamma HRP.
On the technique in general: ELISA stands for enzyme-linked immunosorbent assay.

The target of test [2] is T1, m4-1BB expressed on CHO-K1 cells …. Put plainly: flow cytometry on CHO-K1/m4-1BB+ (C20) cells, detected with Anti-mFc-APC (Jax 1:50). The protocol:
To understand whether the 4-1BBL part of the mTGFBR2-Fc-4-1BBL chimeric protein can specifically bind cells expressing 4-1BB, cells expressing 4-1 BB were generated. Specifically, the CHO-K1 cells expressing 4-1 BB were generated using standard techniques. Clone 20, a positive clone, called CHO-K1/m4-1BB+ (C20), was used for further studies. To determine whether the mTGFBR2-Fc-4-1BBL chimeric protein can specifically bind the CHO-K1/4-1BB cells, a flow-cytometry-based assay was carried out. CHO-K1/m4-1BB+(C20) and WT CHO-K1 cells were stained with increasing concentrations of the TGFBR2-Fc-4-1BBL chimeric protein, or positive control protein comprising Fc-4-1BBL (Control-Fc-4-1BBL) and analyzed by flow cytometry. Unstained CHO-K1/m4-1BB+ (C20) and WT CHO-K1 cells or CHO-K1/m4-1BB+ (C20) and WT CHO-K1 cells stained without the TGFBR2-Fc-4-1BBL chimeric protein, or positive control protein comprising Fc-4-1BBL (Control-Fc-4-1BBL) were used as control.
On the technique in general: In flow cytometry, cells or beads pass a laser one at a time.

In test [3] the target is B3. Description: ELISA: plate coated with 41BB-His (5ug/ml, Acro 41B-M52H7), titrated protein captured, detected with α-mFc-HRP (1:10k, Jax 115-036-003). As for the experimental part: The TGFBR2-based chimeric proteins harbor type II transmembrane protein domains at or near the C-terminus. To understand whether the type II transmembrane protein domains from the native chimeric proteins can bind their natural ligands/receptors, ELISA-based assays were performed. TGFBR2-Fc-4-1BBL comprises 4-1BB ligand (4-1BBL or TNFSF9) as the type II membrane protein located at or near the C-terminus. 4-1BB (CD137, TNFRSF9) is the natural receptor/ligand of 4-1BBL. To understand whether the type II transmembrane protein domain part of the native TGFBR2-Fc-4-1BBL chimeric protein can bind 4-1BB, ELISA-based assays were performed. Recombinant 4-1BB-His protein was coated on plates. Increasing amounts of the TGFBR2-Fc-4-1BBL chimeric protein, or a positive control protein comprising Fc-4-1BBL (Control-Fc-4-1BBL) were added for capture by the plate-bound 4-1BB-His protein. Binding was detected using an anti mFc-HRP antibody. […] Therefore, the type II transmembrane protein domain of the TGFBR2-Fc-4-1BBL and Control-Fc-4-1BBL chimeric proteins bind to the natural ligand/receptor of the 4-1BBL.

Test [4] has as its target T2, recombinant mouse 4-1 BB Ligand protein …. Description: Octet (4-1BB Arc Octet): 41BB His (5ug/ml, Acro 41B-M52H7) on the tip, All Molecules at 30ug/ml; rm41BBL R&D 1246-4L. The protocol:
To study the binding kinetics of type II transmembrane protein domain and TGFBR2 parts of the illustrative TGFBR2-based chimeric proteins, binding assays were performed using the Octet system (ForteBio). Binding of the TGFBR2-Fc-4-1BBL chimeric protein to recombinant 4-1BB was analyzed. Briefly, recombinant 4-1BB-His protein was immobilized and detected using the mTGFBR2-Fc-4-1BBL chimeric protein, a positive control protein comprising Fc-4-1BBL (Control-Fc-4-1BBL) or commercially available recombinant mouse 4-1 BB Ligand protein (R&D Systems, Cat. No. 1246-4L). The binding response of the mTGFBR2-Fc-4-1BBL chimeric protein to 4-1BB-His protein was measured and plotted in real time on a sensorgram trace.
In general terms: In BLI a coated tip is dipped into the sample, and binding shifts an interference pattern.

For orientation: EC50 (read off the curve) means the midpoint of the concentration-response curve. In the case of B1, the “EC50 (read off the curve)” value in test [1] is roughly 10 µg/mL.

In the case of B2, the figures for the concentration for a half-maximal effect (EC50 (read off the curve)) in test [2] and in test [3] were roughly 0.08 µg/mL and roughly 0.07 µg/mL, respectively.

Turning to B3, in test [4], the binding result was “binds”.
